In the RNAGym collection of RNA variant scans (doi:10.1073/pnas.2313332121):

B1: TPR t1 (parent)
chain: GACCAAUCUGCCCUCAGAGCUCGAGAACAUCUUCGGAUGCAGAGGAGGCAGGCUUCGGUGGCGCGAUAGCGCCAACGUCCUCAACCUCCAAUGCAUCCCACCACAUGAUGAUGCCUGAAGAGCCUUGGUUUUUUG

Variants of: B1
Test: polymerase ribozyme fitness, log enrichment relative to wild type (log ratio); higher = more active; in vitro selection for triplet polymerase activity
Outline: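 For each subunit of a heterodimeric triplet polymerase ribozyme, a mutant library was built by PCR and transcribed, then taken through a single in vitro selection round in triplicate. Selection involved annealing to a biotinylated primer, the partner subunit and triplets, incubation frozen at −7 °C, gel excision of extended constructs, capture on streptavidin beads and RT-PCR. Genotypes were retained after Illumina sequencing of inputs and outputs only with ≥10 input reads and ≥1 read in each output. Fitness is defined as the logarithm of a genotype's enrichment relative to wild-type enrichment, using inverse-variance-weighted averages across replicates, with the logarithm taken to base 2.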

Variant | polymerase ribozyme fitness (log ratio)
GACCAAUCUGCCCUCAGAGCUCGAGAACAUCUUCGGAAGCAGAGGAGGCAGGCUUCGGUGGCGCGAUAGCGCCAACGUCCUCAACCUCCAAUGCAUCCCAGCACAUGAUGAUGCCUGAACAGCCUUGGUUUUUUG | -2.43
GACCAAUCUGCCCUCAGAGCUCGAGAACAUCUUCGGUUGCAGAGGAGGCAGGCUUCGGUGGCGCGAUAGCGCCAACGUCCUCAACCUCCAACGCAUCCCACCACAUGAUGAUGCCUGAAGAGCCUUGGUUUUUUG | -1.28
GACCAAUCUGCCCUCAGAGCUCGAGAACAUCUUCGGAAGCAGAGGAGGUAGGCUUCGGUGGCGCGAUAGCGCCAACGUCCUCAACCUCCAAUGCAUCCCACCACAUGAUUAUGCCUGAAGAGCCUUGGUUUUUUG | -4.28
GACCAAUCUGCCCUCAGAGCUCGAGAACAUCUUCGGUUGCAGAGGAGGCAGGCUUCGGUGGCGCGAUAGCGCCAACGUCCUCAACCUCCAAUGCAUCCCACCACAGGAUGAUGCCUGAAGAGGCUUGGUUUUUUG | 0.0565
GACCAAUCUGCCCUCAGAGCUCGAGAACAUCUUCGGUUGCAGAGGAGGCAGGCUUCGGUGGCGCGAUAGCUCCAACGUCCUCAACCUCCAAUGCAUCCCACCACAUGAUGAUGCCUGAAGAGCCUUGGUUUUUUG | -0.54
GACCAAUCUGCCCUCAGAGCUCGAGAACAUCUUCGGAGGCUGAGGAGGCAGGCUUCGGUGGUGCGAUAGCGCCAACGUCCUCAACCUCCAAUGCAUCCCACCACAUGAUGAUGCCUGAAGAGCCUUGGUUUUUUG | -3.01
GACCAAUCUGCCCUCAGAGCUCGAGAACAUCUUCGGAAGCAGAGCAGGCAGGCUUCGGUGGCGCGAUAGCGCCAACGUCCUCAACCUCUAAUGCAUCCCACCACAUGAUGAUGCCUGAAGAGCCUUGGUUUUUUG | -2.34
GACCAAUCUGCCCUCAGAGCUCGAGAACAUCUUCGGAAGCAGAGGAGGCAGGCUUCGGUGGCGCGAUAGCGCCAACGUCCUCAACCUCCAAUGCAACCCACCACAUGAUGAUGCCUGAAGAGCCUUGGUUUUUUG | -1.13
GACCAAUCUGCCCUCAGAGCUCGAGAACAUCUUCGGAAGCAGAGGAGGCAGGCGUCGGUGGCGCGAUAGCGCCAACGUCCUCAACCUCCAAUGCAUCCCACCACAUGAUGACGCCUGAAAAGCCUUGGUUUUUUG | -0.498
GACCAAUCUGCCCUCAGAGCUCGAGAACAUCUUCGGUUGCAGAGGAGGCAGGCUUCGGUGGCGCGAUAGCGCCAACGUCCUCAACCUCCAAUGCAUCCCACCACAUGAUGAUGCCUGAAGAGCCGUGGUUUUUUG | -1.07
GACCAAUCUGCCCUCAGAGCUCGAGAACAUCUUCGGAGGCAGAGGUGGCAGGCUUCGGUGGCGCGAUAGCGCCAACUUCCUCAACCUCCAAUGCAUCCCACCACAUGAUGAUGCCUGAAGAGCUUUGGUUUUUUG | -1.67
GACCAAUCUGCCCUCAGAGCUCGAGAACAUCUUCGGAAGCAGAGGAGGCAGGCUUCGGUGGCGCGAUAGCGGCAACGUCCUCAACUUCCAAUGCAUCCCACCACAUGAUGAUGCCUGAAGAGCCUUGGUUUUUUU | -3.57
GACCAAUCUGCCCUCAGAGCUCGAGAACAUCUUCGGAAGCAGAGGAGGCUGGCUUCGGUGGCGCGAUAGCGCGAACGUCCUCAACCUCCAAUGCAUCCCACCACAUGAUGAUGCCUGAAGUGCCUUGGUUUUUUG | -0.841
GACCAAUCUGCCCUCAGAGCUCGAGAACAUCUUCGGAAGCAGAGGAGGCAGGCUUCGGUGGCGCGAUAGCGCCAACGUCCUCAACCUCCAAUGCAUCCCACCACAUGAUGAUGCCUGAAGAGCCUUAGUUUUUUG | -2.5
GACCAAUCUGCCCUCAGAGCUCGAGAACAUCUUCGGACGCACAGGAGGCAGGCUUCGGUGGCGCGAUAGCGCCAACGACCUCACCCUCCAAUGCAUCCCACCACAUGAUGAUGCCUGAAGAGCCUUGGUUUUUUG | -3.16
GACCAAUCUGCCCUCAGAGCUCGAGAACAUCUUCGGACGCAGAGGUGGCAGGCUUCGGUGGCGCGAUAGCGCCAACGUCCUCAACCUCCAAUGCAUCCCCCCACAUGAUGAUGCCUGAAGAGCCUUGGUUUUUUG | -4.28
GACCAAUCUGCCCUCAGAGCUCGAGAACAUCUUCGGAAGCAGAGGAGGCAGGCUUCGGUGGCGCGAUAGCGCCAACGUCCUCAACCUCCAAUGCAUCCCACCACAUGAUGAUGACUGAAGUGCCUUGGUUUUUUG | -1.59
GACCAAUCUGCCCUCAGAGCUCGAGAACAUCUUCGGAGGCUGAGGAGGCAGGCUUCGGUGGCGCGAUAGCGCCAACGUCCUCAACCUCCAAUGCAUCCCACCACAUGAUGAUGCCUGAAGAGCCUUGGUUUUUUG | -2.98
GACCAAUCUGCCCUCAGAGCUCGAGAACAUCUUCGGAAACAGAGGAGGCAGGCUUCGGUGUCGCGAUAGCGCCAACGUCCUCAACCUCCAAUGCAUCCCACCACAUGAUGAUGCCUGAAGAGCCUUGGUUUUUUG | -1.2
GACCAAUCUGCCCUCAGAGCUCGAGAACAUCUUCGGAAGCAGAGGAGGCAGGCUUCGGUGACGCGAUAGCGCCAACGUCCUCAACCUCCAAUGCAUCCCACCACAUGAUGAUGCCUGAAGAGCCUUGGUUUUUUG | -1.68
GACCAAUCUGCCCUCAGAGCUCGAGAACAUCUUCGGAAGCAGAGGAGGCUGGCUUCGGUGGUGCGAUAGCGCCAACGUCCUCAACCUCCAAUGCAUCCCACCACAUGAUGAUGCCUGAAGAGGCUUGGUUUUAUG | -1.2

Variant | polymerase ribozyme fitness (log ratio)
GACCAAUCUGCCCUCAGAGCUCGAGAACAUCUUCGGUUGCAGAGGAGGCAGGCAUCGGUGCCGCGAUAGCGCCAACGUCCUCAACCUCCAAUGCAUCCCACCACAUGACGAUGCCUGAAGAGCCUUGGUUUUUUG | -7.14
GACCAAUCUGCCCUCAGAGCUCGAGAACAUCUUCGGUUGCAGAGGAGGCAGGCUUCGGUGGCGCGAUAGCGCCAACGUCCUCAACCUCCAAUGCAUCCCACCACAUGAUCAUGCCUGAAGUGCCUUGGUUUUUUG | -3.77
GACCAAUCUGCCCUCAGAGCUCGAGAACAUCUUCGGAAGAAGAGGAGGCAGGCUUCGGUGGCGCGAUAGCGCCAACGUCCUCAACCUCCAAUUCAUCCCACCACAUGAUGAUGCCUGAAGAGCCUUGGUUUUUUG | -0.915
GACCAAUCUGCCCUCAGAGCUCGAGAACAUCUUCGGAAGCAGAGGAGGCAGGCUUCGGUGGCGCGAUAGCUCCAACGUCUUCAACCUCCAAUGCGUCCCACCACAUGAUGAUGCCUGAAGAGCAUUGGUUUUUUG | -0.159
GACCAAUCUGCCCUCAGAGCUCGAGAACAUCUUCGGACGCAGAGGAGGCAGGCUUCGGUGGCCCGAUAGCGCCAACGUCCUCAACCUCCAAUGCAUCCCACUACAUGAUGAUGCCUGAAGAGCCUUGGUUUUUUG | -3.7
GACCAAUCUGCCCUCAGAGCUCGAGAACAUCUUCGGAAGCAGAGGAGGCAGGCUUCGGUGGCGCGAUAGCGCCAACGUCCUCAACCUCCAAUGCAUCCCACUACAUGAUGAUGCCUGAAGAGCCUUGGUUUUUUG | -4.16
GACCAAUCUGCCCUCAGAGCUCGAGAACAUCUUCGGAAGCAGAGGAGGCAGGCUUCGGUGGCGCGAUAGCGCCAACGUCCUCAACCUCCAAUGCAUCCCACAACAUGAUGAUGCCUGAAGAGCCUUGGUUUUUUG | -4.22
GACCAAUCUGCCCUCAGAGCUCGAGAACAUCUUCGGUUGCAGAGGAGGCAGGCUUCGGUGGCGCGAUAGCGCCAACGCCCUCAACCCCCAAUGCAUCCCACCACAUGAUGAUGCCUGAAGAGCCUUGGUUUUUUG | 0.269
GACCAAUCUGCCCUCAGAGCUCGAGAACAUCUUCGGUUGCAGAGGAGGCAGGCUUCGGUGGCGCGAUAGCUCCAACGUCCUCAACCUCCAAUGCAUCCCACCACAUGAUGAUGCCUGAAGAACCUUGGUUUUUUG | -1.17
GACCAAUCUGCCCUCAGAGCUCGAGAACAUCUUCGGAAGCAGAGGAGGCAGGCUUCGGUGGCACGAUAGCGCCAACGUCCUCAACCUCCAAUGCAUCCCACCACAUGAUGAUGCCUGAAGAGCCUUGGUUUUUUG | -2.12
GACCAAUCUGCCCUCAGAGCUCGAGAACAUCUUCGGAGGCAGAGGAGGCAGGCUUCGGUGGCGCGAUAGCGCCAACGUCCUCAACCUCCAAUGCAUCCCACCACCUGAUGAAGCCUGAAGACCCUUGGUUUUUUG | -5.07
GACCAAUCUGCCCUCAGAGCUCGAGAACAUCUUCGGAAGCAGAGGAGGCAGGCUUCGGUAGCGCGAUAGCGCCAACGUCCUCAACCUCCAAUGCAUCCCACCACAUGAUGAUGCCUGAAGCGCCUUGGUUUUUUU | -1.36
GACCAAUCUGCCCUCAGAGCUCGAGAACAUCUUCGGAAGCAGAGGAGGCAGGCUUCGGUGGCGUGAUAGCGCCAACGUCCUCAACCUCCAAUGCAUCCCACCACAUGAUGAUGCCUGAAGAGCCUUGGUUUAUUG | -0.788
GACCAAUCUGCCCUCAGAGCUCGAGAACAUCUUCGGAGGCAGAGGAGGCAGGCUUCGGUGGCGCGAUAGCGCCAACGUCCUCAACCUCCUAUGCAUCCCACCACAUGAUGAUGCCUGAAGAGCCUUGGUUUUUUG | -1.61
GACCAAUCUGCCCUCAGAGCUCGAGAACAUCUUCGGUUGCAGAGGAGGCAGGCUUCGGUGGCGCGAUAGCGCCAACGUCCUCAACCUCCAAUGCAUCCCACCACAUGAUGAUGCCUGAAGAGCCUUUGUUUUUUG | -1.42
GACCAAUCUGCCCUCAGAGCUCGAGAACAUCUUCGGAAGCAGAGGAGGCAGGCUUCGGUGGCGCGAUAGCGCCAACGUCCUCAACCUCCAAUGCAUCCCACCACAUGAUGAUGCCUGAAUAGCCUUGGUUUUUUG | 0.263
GACCAAUCUGCCCUCAGAGCUCGAGAACAUCUUCGGUUGCAGAGGAGGCAGGCAUCGGUGGCGCGAUAGCGCCAACGUCCUCAUCCUCCAAUGCAUCCCACCACAUGAUGAUGCCUGAAGAGCCUUGGUUUUUUG | -0.554
GACCAAUCUGCCCUCAGAGCUCGAGAACAUCUUCGGAAGCAGAGGAGGCAGGCUUCGGUUGAGCGAUAGCGCCUACGUCCUCAACCUCCAAUGCAUCCCACCACAUGAUGAUGCGUGAAGAGCCUUGGUUUUUUG | -6.4
GACCAAUCUGCCCUCAGAGCUCGAGAACAUCUUCGGACGCAGAGGAGGCAGGCUUUGGUGGCGCGAUAGCGCCAACGUCCUCAACCUCCAAUGCAUCCCACCACAUGAUGAUGCCUGAAGAGCCUUGGUUUUUUG | -0.488
GACCAAUCUGCCCUCAGAGCUCGAGAACAUCUUCGGAAGCAGAGGAGGGAGGCUGCGGUGGCGCGAUAGCGCCAACGUCCUCAACCUCCAAUGCAUCCCACCACAUGAUGAUGCCUGAAGAGCCUUGGUUUUUUG | -2.77
GACCAAUCUGCCCUCAGAGCUCGAGAACAUCUUCGGAAGCAGAGGAGGCAGGCUUCGGUGGCGCGAUAGCGCUAACGUCCUCAACCUCCAAUGCAUCCCACCACAUGAUGAUGCCUGAAGAGCCUUGGUUUUUUG | -2.86
